Here are results for eight molecules from patent US20250042994A1 (HAINAN SIMCERE ZAIMING PHARMACEUTICAL, published 2025).

As usually defined, the EC50 (read off the curve) is the concentration giving half of the maximal effect. Low readings indicate higher potency in that assay, high ones lower potency in that assay.

To fix the notation:
B1: F4.107.12 (antibody, human IgG1, V domains shown)
VH: EVQLQQSGPELVKPGASVKMSCKASGYTFTSYVLHWVRQKPGQGLEWIGYFNPYNDGTEYNEKFKGKAILTSDKSSSTAYMELNSLTSEDSAVYYCVGGTYYYGSSYPFAYWGQGTLVTVST
VL: DVVMTQISLSLPVSLGDQASISCRSSQSLIHSNGNTYLQWYLQKPGQSPKLLIYKVSNRLSGVPDRFSGSGSGTDFTLKISRVEAEDLGVYFCSQSTHVPYTFGGGTKLEIK
notes: human-murine chimeric antibody, human IgG1
B2: F4.82.11 (antibody, human IgG1, V domains shown)
VH: QVTLKESGPGILQASQTLSLTCSFSGFSLSTFGIGVGWVRQPSGKGLEWLAHIWWNDNKFFNTTLKNRLTLSKDPSNNQVFLKIASVDTADTATYYCARSRSALITTGLYAMDYWGQGTSVTVSS
VL: DIQMTQTPSSLSASLGDRVTISCRSSQDISNYVNWYQQKPDGTVKVLINYTSRLHSGVPSRFSGSGSGTDYSLTISNLEQEDIASYFCQQGFTLPYTFGGGTKLEIK
notes: as for B1
B3: F3.148.10 (antibody, human IgG1, V domains shown)
VH: EVQLQQSGAELVRPGSSVTMSCKTSGYTFTNYGINWVKQRPGQGLEWIGYIFIGNDYTEYNEKFKGKATLTSDTSSSTAYMQLSSLTSEDSAIYFCTRFYSNYYGMDPWGQGTSVTVSS
VL: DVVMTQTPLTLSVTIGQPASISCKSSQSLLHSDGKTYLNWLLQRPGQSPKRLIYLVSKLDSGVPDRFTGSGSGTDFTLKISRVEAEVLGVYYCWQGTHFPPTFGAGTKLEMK
notes: as for B1
B4: F4.145.9 (antibody, human IgG1, V domains shown)
VH: EVQLVESGGGLVKPGGSLKLSCAAAGFAFSSYDMSWVRQIPEKRLEWVAYISAGGGNTYFLDTVKGRFTISRDHAKNTLSLQMSSLKSEDTAMYFCVRHGDYYRYFYAMDYWGQGSSVTVSS
VL: DIVMTQSHKFMSTSVGDRVSITCKASQDVGTAVAWSQQKPGQSPKLLIYWASTRHTGVPDRFTGSGSGTDFTLTISNVQSEDLADYFCQQFVTYPYTFGGGTKLEIK
notes: as for B1
B5: F4.152.7 (antibody, human IgG1, V domains shown)
VH: QVQLQQPGAELVKPGASVKLSCKASGYTFTSYWMHWVKQRPGQGLEWIGEIDPSDSYTNYNQKFKGKATLTADKSSSTAYMQLSGLTSEDSAVYHCARGGDYDGYYVMDYWGQGTSVTVSS
VL: EIVLTQSPTTMAASPGEKITITCSASSSISSNYLHWYQQKPGFSPKLLIYRTSNLASGVPARFSGSGSGTSYSLTIGTMEADDVATYYCQQGSYIPRIFTFGSGTKLEIK
notes: as for B1
B6: F4.78.1 (antibody, human IgG1, V domains shown)
VH: QVQIQQSGAELARPGASVKLSCKASGYTFTNYWMQWIKQRPGQGLEWIGAIYPGDGDTRYTQKFKGKATLTADKSSSTAYMQLSSLASEDSAVYYCAREEVWSPYGMDYWGQGTSVTVSS
VL: QIVLTQSPAIMSASPGEKVTITCSASSSVSYMGWFQQKPGTSPKLWIYSTSNLASGVPARFSGSGSGTSYSLTISRMEAEDAATYYCQQRSIYPLTFGAGTKLELK
notes: as for B1
B7: F4.4.6 (antibody, human IgG1, V domains shown)
VH: QVQLQQSGAELARPGASVKLSCKASGYTFTSYWMQWVKQRPGQGLEWIGAIYPGDGDSRYTQKFKGKATLTADKSSSTAYMQLSSLASEDSAVYYCARSTTTVLGNNFEYWGQGTTLTVSS
VL: QIVLTQSPAIMSALPGEKVTMTCSASSSVSSMHWYQQKSGTSPKRWIYDTSKLASGVPARFSGSGSGTSYSLTISSMEAEDAATYYCQQWSSNPWTFGGGTKLEIK
notes: as for B1
B8: F4.125.12 (antibody, human IgG1, V domains shown)
VH: EVKLVESGGGLVQPGGSLKLSCAASGFTFSTYTMSWVRQTPEKRLEWVAFISSGGGHINYPDTVKGRFTISRDNAKNTLYLQMSSLKSEDTAMYYCARHSYWFFDVWGAGTTVTVSS
VL: DVQITQSPSYLAASPGETITINCRASKNIDTYLAWYQEKPGKTNKLLIYSGSTLQSGIPSRFRGGGSGTDFTLTICSLEPEDFAMYYCQQHNEYPLTFGAGTKLELK
notes: as for B1

One test has as its target T1, Human CD19-his protein (human, UniProt P15391 20-291).
T1 construct: bought protein; also called human CD19 protein; recombinant human CD19-His; not shown: His tag
T1 sequence (looked up): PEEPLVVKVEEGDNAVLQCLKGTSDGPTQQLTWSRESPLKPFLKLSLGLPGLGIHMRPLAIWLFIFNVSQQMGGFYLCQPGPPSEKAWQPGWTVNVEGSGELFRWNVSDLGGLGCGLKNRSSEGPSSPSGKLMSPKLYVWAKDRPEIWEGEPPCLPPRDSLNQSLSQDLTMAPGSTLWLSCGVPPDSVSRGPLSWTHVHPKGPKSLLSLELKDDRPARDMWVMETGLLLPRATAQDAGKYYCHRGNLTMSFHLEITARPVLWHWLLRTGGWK
Description: ELISA, antibody at 0.10 nM. (In general: ELISA stands for enzyme-linked immunosorbent assay.)
Consider B1, for which the OD450 is 1.33.
Regarding B2, the OD450 is 0.85.
The same measure, in the same setting: the same measure for B3: 0.98; for B4: 1.11; for B5: 1.28.
Still for that read-out and setting: under B6 stands 1.09; under B7, 0.37; under B8, 1.07.

For a further test, the target named is T2, murine CD19 protein (murine, UniProt P25918 17-287, limits assumed).
T2 construct: bought protein; also called commercial murine CD19
T2 sequence (looked up): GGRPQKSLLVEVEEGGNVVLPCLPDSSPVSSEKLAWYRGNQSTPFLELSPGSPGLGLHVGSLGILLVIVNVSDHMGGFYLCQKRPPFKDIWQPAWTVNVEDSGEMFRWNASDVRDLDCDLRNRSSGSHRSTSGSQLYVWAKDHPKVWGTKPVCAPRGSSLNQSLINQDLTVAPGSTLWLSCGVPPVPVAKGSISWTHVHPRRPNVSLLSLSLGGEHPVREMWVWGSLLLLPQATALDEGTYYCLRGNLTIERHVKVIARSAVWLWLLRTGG
Description: ELISA, coated murine CD19. In outline:
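Plates coated overnight at 4° C with recombinant murine or monkey CD19 and blocked with 2% BSA. Chimeric antibodies, serially diluted from 100 nM, bound for 2 h at 37° C. TMB development for 10 min with OD450 read-out.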
As for B1, the binding result is “no binding”.
On the same count and under the same terms, under B2 stands “no binding”; under B3, “no binding”; under B4, “no binding”.
With B5, the binding result is reported as “no binding”.
On the same count and under the same terms, the same measure for B6: “no binding”.
Still for that read-out and setting: under B7 stands “no binding”.
In the case of B8, the binding result is listed as “no binding”.

For another test, the target named is T1, Human CD19-his protein. Description: ELISA, antibody at 0.01 nM.
In turn, B1 showed an OD450 of 0.27.
The same measure, in the same setting: under B2 stands 0.24; under B3, 0.22.
Same read-out and setting: under B4 stands 0.27; under B5, 0.26.
The molecule B6 came in with an OD450 of 0.23.
B7 came in with an OD450 of 0.1.
The same measure, in the same setting: under B8 stands 0.23.

For another test, the target named is T3, human CD19 exon1-3-his protein (human, UniProt P15391 20-186, limits assumed).
T3 construct: made in HEK293E cells; also called membrane-distal end; not shown: His tag
T3 sequence (looked up): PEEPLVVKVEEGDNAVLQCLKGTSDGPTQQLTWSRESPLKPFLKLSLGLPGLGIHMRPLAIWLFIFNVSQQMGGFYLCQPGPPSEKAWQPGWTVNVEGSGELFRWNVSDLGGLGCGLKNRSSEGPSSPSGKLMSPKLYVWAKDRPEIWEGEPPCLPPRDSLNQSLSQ
Description: ELISA, coated at 2 ug/mL.
Consider B1, for which the binding result is listed as “no binding”.
As for B2, the binding result is “no binding”.
For the molecule B4, the binding result is “no binding”.
The same measure, in the same setting: the same measure for B5: “no binding”; for B6: “no binding”.
On to B7, for which the binding result is “no binding”.
Consider B8, for which the binding result is “no binding”.

The next test concerns the target T1, Human CD19-his protein. Briefly: ELISA, antibody at 0.001 nM.
B1 registered an OD450 of 0.08.
The same measure, in the same setting: under B2 stands 0.18; under B3, 0.07.
As for B4, the OD450 is 0.08.
The molecule B5 showed an OD450 of 0.07.
Same read-out and setting: the same measure for B6: 0.08.
Take B7: the OD450 amounted to 0.06.
As to B8, the OD450 amounted to 0.09.

Another test has as its target T1, Human CD19-his protein. Description: ELISA, antibody at 100 nM.
As to B1, the OD450 was 1.77.
Still for that read-out and setting: under B2 stands 1.52; under B3, 3.01.
In turn, B4 came in with an OD450 of 1.84.
For B5, the OD450 turned out to be 2.07.
B6 registered an OD450 of 1.87.
Molecule B7 yielded an OD450 of 0.79.
Same read-out and setting: the same measure for B8: 1.84.

In the next test the target is T1, Human CD19-his protein. Briefly: ELISA, antibody at 0.0001 nM.
B1 showed an OD450 of 0.05.
On the same count and under the same terms, under B2 stands 0.09.
On the same count and under the same terms, the same measure for B3: 0.05.
Same read-out and setting: under B4 stands 0.06; under B5, 0.05.
Molecule B6 showed an OD450 of 0.06.
Same read-out and setting: under B7 stands 0.05; under B8, 0.06.

Another test addresses T1, Human CD19-his protein. Description: ELISA on coated human CD19-His. On the procedure:
Human CD19-his protein (purchased from ACROBiosystems, catalog number: CD9-H52H2) was diluted with PBS to a final concentration of 4 μg/mL, and then added to a 96-well ELISA plate at 100 μl/well. The plate was sealed with a plastic film and incubated overnight at 4° C., the plate was washed 2 times with PBS the next day, and then a blocking solution [PBS+2% (w/w) BSA] was added for blocking at room temperature for 2 h. The blocking solution was poured off, and 100 nM gradiently diluted CD19 chimeric antibody or control antibody was added at 50 μl/well. After incubation at 37° C. for 2 h, the plate was washed 3 times with PBS. […] TMB substrate was added at 50 μl/well, and incubated at room temperature for 10 min, and then a stop solution (1.0 N HCl) was added at 50 μl/well. The OD450 nm values were read by an ELISA microplate reader (Multimode Plate Reader, EnSight, purchased from Perkin Elmer).
Take B1: the concentration for a half-maximal effect (EC50 (read off the curve)) was about 40 pM.
On the same count and under the same terms, the same measure for B2: about 80 pM.
Turning to B3, the concentration giving a half-maximal response (EC50 (read off the curve)) was about 200 pM.
Still for that read-out and setting: under B4 stands about 60 pM.
Still for that read-out and setting: under B5 stands about 60 pM; under B6, about 70 pM; under B7, about 100 pM.
For B8, the “EC50 (read off the curve)” value is about 60 pM.

Another test concerns the target T1, Human CD19-his protein. Briefly: ELISA, antibody at 1.00 nM.
With B1, the OD450 was found to be 1.93.
The same measure, in the same setting: under B2 stands 1.6.
On the same count and under the same terms, the same measure for B3: 2.66; for B4: 1.79; for B5: 2.12.
Still for that read-out and setting: the same measure for B6: 1.73; for B7: 0.6; for B8: 1.68.

The next test has as its target T1, Human CD19-his protein. Briefly: ELISA, antibody at 10 nM.
For B1, the OD450 was determined as 1.75.
B2: the OD450 was found to be 1.55.
Same read-out and setting: under B3 stands 2.94.
B4 registered an OD450 of 1.73.
The molecule B5 returned an OD450 of 2.01.
B6 yielded an OD450 of 1.94.
On the same count and under the same terms, under B7 stands 0.58; under B8, 1.54.
